Target: the molecule itself
Experiment: cryo-EM structure

B1: Human TMEM175 (transmembrane protein 175) (natural protein)
chain: MSQPRTPEQALDTPGDCPPGRRDEDAGEGIQCSQRMLSFSDALLSIIATVMILPVTHTEISPEQQFDRSVQRLLATRIAVYLMTFLIVTVAWAAHTRLFQVVGKTDDTLALLNLACMMTITFLPYTFSLMVTFPDVPLGIFLFCVCVIAIGVVQALIVGYAFHFPHLLSPQIQRSAHRALYRRHVLGIVLQGPALCFAAAIFSLFFVPLSYLLMVTVILLPYVSKVTGWCRDRLLGHREPSAHPVEVFSFDLHEPLSKERVEAFSDGVYAIVATLLILDICEDNVPDPKDVKERFSGSLVAALSATGPRFLAYFGSFATVGLLWFAHHSLFLHVRKATRAMGLLNTLSLAFVGGLPLAYQQTSAFARQPRDELERVRVSCTIIFLASIFQLAMWTTALLHQAETLQPSVWFGGREHVLMFAKLALYPCASLLAFASTCLLSRFSVGIFHLMQIAVPCAFLLLRLLVGLALATLRVLRGLARPEHPPPAPTGQDDPQSQLLPAPC
  stoichiometry N: 2

Reference: article PMC8956256 (Science Advances, 2022)
